Measured values from patent US20230159661A1 (published 2023).
Like-named read-outs stand apart in the source and are kept apart here. One block for each binder: values may come before it.

Key:
[1] = molecular target: T1, human EGFR soluble extracellular region with C-terminal poly-histidine tag (hEGFR) (UniProt P00533 25-638); test: SPR
[2] = molecular target: T1, human EGFR soluble extracellular region …; test: SPR; remark: listed apart in the source

Kd [1]: 14.5 nM
B1: 10E6-stable (antibody, V domains shown)
VH: EVQLVESGGGLVQPGGSLRLSCAVSGYSLTSDYAWSWIRQAPGKGLEWMVYITYSGITTYNPSLKSRITISRDTSKNTFYLQMNSLRAEDTAVYYCAGGDYGLSSWFAYWGQGTMVTVSS
VL: DIQLTQSPSSLSASVGDRVTITCRASQSISNYLHWYQQKPGKAPKLLIKYASQSISGVPSRFSGSGSGTDFTLTISSLQPEDFATYFCQQSNNWPYTFGQGTKVEIKR

Kd [2]: 10.8 nM
B2: 10E6 chimeric antibody (antibody, V domains shown)
VH: DVQLQESGPGRVKPSQSLSLTCTVTGYSLTSDYAWSWIRQFPGNRLEWMVYITYSGITTYNPSLKSRISITRDTSKNQFFLQLNSVTTEDTATYYCAGGDYGLSSWFAYWGQGTLVTVSS
VL: DIVLTQSPVTLSVTPGDRVSLSCRASQSISNYLHWYQQKSHESPRLLIKYASQSISGIPSRFSGSGSGTDFTLSINSVETEDFGMYFCQQSNNWPYTFGGGTKLEIKR

Kd [1]: 20.1 nM
B3: 10E6-best-fit (antibody, V domains shown)
VH: QVQLQESGPGLVKPSQTLSLTCTVSGYSLTSDYAWSWIRQPPGKGLEWMVYITYSGITTYNPSLKSRITISRDTSKNQFSLKLSSVTAADTAVYYCAGGDYGLSSWFAYWGQGTTVTVSS
VL: EIVLTQSPDFQSVTPKEKVTITCRASQSISNYLHWYQQKPDQSPKLLIKYASQSISGVPSRFSGSGSGTDFTLTINSLEAEDAATYFCQQSNNWPYTFGQGTKLEIKR

Kd [2]: 346 nM
B4: 3A6 chimeric antibody (antibody, V domains shown)
VH: QVQLKQSGPGLVQPSQSLSITCTVSGFSLTSYGVHWVRQSPGKGLEWLGVIWSGGTTDYNAAFISRLSISQDNSKSQVFFKMNSLQANDTAIYYCAGNQGRTVRPTWFAYWGQGTLVTVSS
VL: DILLTQSPAILSVSPGERVSFSCRASQSIGTSIHWYQQRANGSPRLLIKYASESISGIPSRFSGSGSGTDFTLSINSVESEDIAHYYCQQNSNWPLTFGAGTKLELKR
